According to patent US20240165282A1, “CONFORMATIONAL CONSTRAINED SOMATOSTATIN RECEPTOR 3 PEPTIDE LIGANDS AND THEIR CONJUGATES AND USES THEREOF” (STARGET PHARMA LTD., priority 2021, published 2024):
*1 amine or outer side, *2 acyl side, *3 side chain or, on linkers, in order; H or OH if unused. Bridges are numbered along the chain shown (N, C = ends). [ ]: non-standard residue; d: D form. The star is where a group is joined. DOTA = O=C(O)CN1CCN(CC(=O)O)CCN(CC(=O)*)CCN(CC(=O)O)CC1; N(2-mercaptoethyl)Gly = O=C(CN(CCS[*:3])[*:1])[*:2]

Key:
Assay in all cases: cell-based or functional assay
[1] = molecular target: CXCR7 (human) (UniProt P25106)
[2] = molecular target: LTB4R (human) (UniProt Q15722)
[3] = molecular target: GPR120 (human) (UniProt Q5NUL3)
[4] = molecular target: TBXA2R (human) (UniProt P21731)
[5] = molecular target: CCR9 (human) (UniProt P51686)
[6] = molecular target: AGTRL1 (human) (UniProt P35414)
[7] = molecular target: GCGR (human) (UniProt P47871)
Sequence of GCGR (human) (P47871 26-477): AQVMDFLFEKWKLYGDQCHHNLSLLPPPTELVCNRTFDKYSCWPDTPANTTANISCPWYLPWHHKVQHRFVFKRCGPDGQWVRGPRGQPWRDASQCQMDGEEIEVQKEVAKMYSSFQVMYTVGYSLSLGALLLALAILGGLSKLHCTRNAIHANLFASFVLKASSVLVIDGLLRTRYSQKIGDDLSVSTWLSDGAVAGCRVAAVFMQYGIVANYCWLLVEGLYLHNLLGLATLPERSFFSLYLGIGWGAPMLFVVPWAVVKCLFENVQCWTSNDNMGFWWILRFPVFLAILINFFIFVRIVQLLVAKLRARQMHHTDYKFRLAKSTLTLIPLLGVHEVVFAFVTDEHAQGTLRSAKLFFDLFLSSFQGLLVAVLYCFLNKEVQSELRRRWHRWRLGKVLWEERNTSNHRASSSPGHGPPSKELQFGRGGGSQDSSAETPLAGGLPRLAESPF

[8] = molecular target: AVPR1B (human) (UniProt P47901)
[9] = molecular target: SCTR (human) (UniProt P47872)
[10] = molecular target: HTR1F (human) (UniProt P30939)
[11] = molecular target: GPR109B (human) (UniProt P49019)
[12] = molecular target: PTGER2 (human) (UniProt P43116)
[13] = molecular target: (CR)R-RAMP2 (human) (UniProt P30988)
Sequence of (CR)R-RAMP2 (human) (P30988 25-474, chain 1 of 2): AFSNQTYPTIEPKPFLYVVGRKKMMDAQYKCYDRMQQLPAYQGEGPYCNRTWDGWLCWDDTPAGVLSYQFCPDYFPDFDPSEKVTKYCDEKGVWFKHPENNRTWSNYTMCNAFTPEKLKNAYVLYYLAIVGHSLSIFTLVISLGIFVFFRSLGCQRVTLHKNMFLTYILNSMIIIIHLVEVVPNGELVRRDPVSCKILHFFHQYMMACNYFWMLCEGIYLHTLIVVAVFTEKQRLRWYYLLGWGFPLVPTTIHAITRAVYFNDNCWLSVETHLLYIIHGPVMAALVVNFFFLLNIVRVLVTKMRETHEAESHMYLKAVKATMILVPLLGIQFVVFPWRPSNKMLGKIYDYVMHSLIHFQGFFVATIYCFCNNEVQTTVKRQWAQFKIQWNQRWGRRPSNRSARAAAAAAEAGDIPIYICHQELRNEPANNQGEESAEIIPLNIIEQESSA
Sequence of (CR)R-RAMP2 (human) (O60895 43-175, chain 2 of 2, further chain): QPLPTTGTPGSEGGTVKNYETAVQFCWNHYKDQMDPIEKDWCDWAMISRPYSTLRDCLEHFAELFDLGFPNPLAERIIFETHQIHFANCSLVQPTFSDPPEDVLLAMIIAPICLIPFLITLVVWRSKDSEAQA

[14] = molecular target: NPY2R (human) (UniProt P49146)
Sequence of NPY2R (human) (P49146 whole entry): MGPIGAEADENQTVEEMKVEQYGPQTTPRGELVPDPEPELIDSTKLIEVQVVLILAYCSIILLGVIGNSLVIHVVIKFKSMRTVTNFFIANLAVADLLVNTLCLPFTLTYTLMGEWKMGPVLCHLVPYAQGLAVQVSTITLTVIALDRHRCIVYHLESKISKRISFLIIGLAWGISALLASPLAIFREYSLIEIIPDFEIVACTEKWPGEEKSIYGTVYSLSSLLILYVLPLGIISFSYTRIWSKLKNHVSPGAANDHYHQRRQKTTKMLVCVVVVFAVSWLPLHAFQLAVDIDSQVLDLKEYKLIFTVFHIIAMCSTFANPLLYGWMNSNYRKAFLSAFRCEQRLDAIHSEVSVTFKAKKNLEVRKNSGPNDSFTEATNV

[15] = molecular target: EDNRB (human) (UniProt P24530)
Sequence of EDNRB (human) (P24530 27-442): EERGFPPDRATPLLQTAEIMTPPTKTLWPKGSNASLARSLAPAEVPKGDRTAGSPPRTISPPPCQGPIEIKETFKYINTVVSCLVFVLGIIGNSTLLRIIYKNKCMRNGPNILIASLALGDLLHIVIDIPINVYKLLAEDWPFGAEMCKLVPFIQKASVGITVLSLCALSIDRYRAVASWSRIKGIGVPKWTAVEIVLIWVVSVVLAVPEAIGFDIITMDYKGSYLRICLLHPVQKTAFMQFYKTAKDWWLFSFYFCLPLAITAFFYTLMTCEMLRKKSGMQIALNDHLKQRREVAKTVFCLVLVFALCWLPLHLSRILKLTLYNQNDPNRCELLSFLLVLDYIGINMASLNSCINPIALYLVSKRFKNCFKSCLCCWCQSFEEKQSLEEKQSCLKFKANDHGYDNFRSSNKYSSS

[16] = molecular target: CCKBR (human) (UniProt P32239)
Sequence of CCKBR (human) (P32239 whole entry): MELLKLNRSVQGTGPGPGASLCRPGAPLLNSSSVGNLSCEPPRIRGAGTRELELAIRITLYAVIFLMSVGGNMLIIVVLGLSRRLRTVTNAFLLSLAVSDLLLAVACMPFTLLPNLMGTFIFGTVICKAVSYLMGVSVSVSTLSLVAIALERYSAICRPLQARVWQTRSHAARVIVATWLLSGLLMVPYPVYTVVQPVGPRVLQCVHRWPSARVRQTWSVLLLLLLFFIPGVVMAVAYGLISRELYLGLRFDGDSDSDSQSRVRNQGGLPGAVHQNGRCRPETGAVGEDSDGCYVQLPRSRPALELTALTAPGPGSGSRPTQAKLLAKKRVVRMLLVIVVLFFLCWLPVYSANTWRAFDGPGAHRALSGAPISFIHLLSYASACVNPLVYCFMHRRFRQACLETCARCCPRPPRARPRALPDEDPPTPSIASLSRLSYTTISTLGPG

[17] = molecular target: ADRA2B (human) (UniProt P18089)
[18] = molecular target: CCR6 (human) (UniProt P51684)
[19] = molecular target: DRD4 (human) (UniProt P21917)
[20] = molecular target: EDG5 (human) (UniProt O95136)
[21] = molecular target: CCKAR (human) (UniProt P32238)
[22] = molecular target: GPR103 (human) (UniProt Q96P65)
Sequence of GPR103 (human) (Q96P65 whole entry): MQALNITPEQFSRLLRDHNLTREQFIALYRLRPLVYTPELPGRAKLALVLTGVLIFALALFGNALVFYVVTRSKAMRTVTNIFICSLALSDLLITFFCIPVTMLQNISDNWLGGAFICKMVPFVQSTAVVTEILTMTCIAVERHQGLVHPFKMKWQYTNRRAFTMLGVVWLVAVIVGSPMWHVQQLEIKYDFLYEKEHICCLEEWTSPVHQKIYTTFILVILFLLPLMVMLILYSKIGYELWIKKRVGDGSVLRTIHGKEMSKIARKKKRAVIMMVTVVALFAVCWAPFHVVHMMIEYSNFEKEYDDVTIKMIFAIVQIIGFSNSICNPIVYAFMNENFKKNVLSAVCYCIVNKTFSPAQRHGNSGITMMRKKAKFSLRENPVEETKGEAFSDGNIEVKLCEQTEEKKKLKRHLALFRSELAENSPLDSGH

[23] = molecular target: F2R (human) (UniProt P25116)
[24] = molecular target: FSHR (human) (UniProt P23945)
[25] = molecular target: GPR92 (human) (UniProt Q9H1C0)
[26] = molecular target: MRGPRX1 (human) (UniProt Q96LB2)
[27] = molecular target: HTR2C (human) (UniProt P28335)
[28] = molecular target: GPR35 (human) (UniProt Q9HC97)
[29] = molecular target: ADRA2C (human) (UniProt P18825)
[30] = molecular target: C5aR1 (human) (UniProt P21730)
[31] = molecular target: AVPR2 (human) (UniProt P30518)
[32] = molecular target: CXCR1 (human) (UniProt P25024)
[33] = molecular target: P2RY12 (human) (UniProt Q9H244)
[34] = molecular target: CNR1 (human) (UniProt P21554)
[35] = molecular target: MC3R (human) (UniProt P41968)
[36] = molecular target: P2RY6 (human) (UniProt Q15077)
[37] = molecular target: DRD5 (human) (UniProt P21918)
[38] = molecular target: F2RL1 (human) (UniProt P55085)
[39] = molecular target: DRD3 (human) (UniProt P35462)
Sequence of DRD3 (human) (P35462 whole entry): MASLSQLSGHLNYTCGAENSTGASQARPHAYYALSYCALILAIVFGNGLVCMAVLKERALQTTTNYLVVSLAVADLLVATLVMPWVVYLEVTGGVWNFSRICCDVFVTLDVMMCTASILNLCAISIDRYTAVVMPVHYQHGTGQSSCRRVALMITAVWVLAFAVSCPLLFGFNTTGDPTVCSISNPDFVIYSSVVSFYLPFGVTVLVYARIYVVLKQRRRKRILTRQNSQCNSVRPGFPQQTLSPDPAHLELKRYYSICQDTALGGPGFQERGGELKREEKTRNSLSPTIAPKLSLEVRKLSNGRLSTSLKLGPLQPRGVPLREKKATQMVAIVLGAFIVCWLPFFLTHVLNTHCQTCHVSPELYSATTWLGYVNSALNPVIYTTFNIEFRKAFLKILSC

[40] = molecular target: human cloned somatostatin receptor 1 (human) (UniProt P30872)
[41] = molecular target: BDKRB1 (human) (UniProt P46663)
[42] = molecular target: GRPR (human) (UniProt P30550)
Sequence of GRPR (human) (P30550 whole entry): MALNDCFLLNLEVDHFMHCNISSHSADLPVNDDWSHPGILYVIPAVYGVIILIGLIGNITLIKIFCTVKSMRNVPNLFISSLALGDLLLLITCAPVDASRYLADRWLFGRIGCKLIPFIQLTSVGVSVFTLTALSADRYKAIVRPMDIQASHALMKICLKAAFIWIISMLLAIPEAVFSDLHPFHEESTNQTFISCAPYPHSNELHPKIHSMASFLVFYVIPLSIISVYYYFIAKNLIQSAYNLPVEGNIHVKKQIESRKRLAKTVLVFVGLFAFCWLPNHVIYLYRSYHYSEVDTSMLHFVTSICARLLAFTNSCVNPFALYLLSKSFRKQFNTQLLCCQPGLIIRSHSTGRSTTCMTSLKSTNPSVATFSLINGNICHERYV

[43] = molecular target: MC5R (human) (UniProt P33032)
[44] = molecular target: CCR8 (human) (UniProt P51685)
[45] = molecular target: CNR2 (human) (UniProt P34972)
[46] = molecular target: LHCGR (human) (UniProt P22888)
Sequence of LHCGR (human) (P22888 27-699): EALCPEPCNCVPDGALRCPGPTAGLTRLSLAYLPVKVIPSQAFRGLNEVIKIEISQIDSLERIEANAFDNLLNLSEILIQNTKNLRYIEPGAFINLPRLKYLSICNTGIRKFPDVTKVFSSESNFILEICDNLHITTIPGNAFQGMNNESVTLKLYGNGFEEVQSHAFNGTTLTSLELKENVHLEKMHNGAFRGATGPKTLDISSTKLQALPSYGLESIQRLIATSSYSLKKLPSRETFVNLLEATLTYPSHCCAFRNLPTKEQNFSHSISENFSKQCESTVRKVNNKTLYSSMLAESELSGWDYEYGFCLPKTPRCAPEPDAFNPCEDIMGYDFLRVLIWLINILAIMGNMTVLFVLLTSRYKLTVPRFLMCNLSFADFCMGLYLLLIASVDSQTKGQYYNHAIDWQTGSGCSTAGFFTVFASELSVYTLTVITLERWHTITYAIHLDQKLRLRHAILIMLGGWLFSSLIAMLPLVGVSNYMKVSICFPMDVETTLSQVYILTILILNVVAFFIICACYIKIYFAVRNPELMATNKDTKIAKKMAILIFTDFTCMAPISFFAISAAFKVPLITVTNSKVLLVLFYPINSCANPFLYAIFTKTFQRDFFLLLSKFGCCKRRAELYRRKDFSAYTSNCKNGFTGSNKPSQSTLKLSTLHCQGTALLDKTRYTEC

[47] = molecular target: (CR)L-RAMP1 (human) (UniProt Q16602)
Sequence of (CR)L-RAMP1 (human) (Q16602 23-461, chain 1 of 2): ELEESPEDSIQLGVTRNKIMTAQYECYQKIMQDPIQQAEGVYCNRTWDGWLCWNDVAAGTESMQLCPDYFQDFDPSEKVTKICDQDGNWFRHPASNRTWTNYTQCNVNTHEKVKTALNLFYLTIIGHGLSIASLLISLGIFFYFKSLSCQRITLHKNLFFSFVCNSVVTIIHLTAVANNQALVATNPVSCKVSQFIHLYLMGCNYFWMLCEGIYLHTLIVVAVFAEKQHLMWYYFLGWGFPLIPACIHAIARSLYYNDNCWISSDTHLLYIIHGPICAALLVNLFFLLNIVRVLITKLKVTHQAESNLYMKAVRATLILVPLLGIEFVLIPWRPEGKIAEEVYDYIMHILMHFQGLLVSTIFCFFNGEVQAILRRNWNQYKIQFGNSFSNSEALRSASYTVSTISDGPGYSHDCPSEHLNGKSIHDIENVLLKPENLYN
Sequence of (CR)L-RAMP1 (human) (O60894 27-148, chain 2 of 2, further chain): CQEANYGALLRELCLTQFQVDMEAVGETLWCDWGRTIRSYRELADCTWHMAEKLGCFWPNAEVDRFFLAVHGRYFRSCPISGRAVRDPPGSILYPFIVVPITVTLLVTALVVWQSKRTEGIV

[48] = molecular target: UTR2 (human) (UniProt Q9UKP6)
[49] = molecular target: RXFP3 (human) (UniProt Q9NSD7)
[50] = molecular target: NPSR1b (human) (UniProt Q6W5P4)
[51] = molecular target: MLNR (human) (UniProt O43193)
[52] = molecular target: ADORA3 (human) (UniProt P0DMS8)
[53] = molecular target: HTR1A (human) (UniProt P08908)
[54] = molecular target: OPRM1 (human) (UniProt P35372)
[55] = molecular target: NPBWR1 (human) (UniProt P48145)
[56] = molecular target: CXCR6 (human) (UniProt O00574)
[57] = molecular target: NMBR (human) (UniProt P28336)
[58] = molecular target: EDG3 (human) (UniProt Q99500)

B1: SEQ ID NO: 4 (peptide)
peptide: {DOTA}-[dF]RCF[dW]KTF[N(2-mercaptoethyl)Gly]-NH2
modifications: disulfide 3-9; also: Ga complex of DOTA
- % Activity (agonist mode, 1 µM) [1]: -1%
- % Activity (agonist mode, 1 µM) [2]: -1%
- % Activity (agonist mode, 1 µM) [3]: -4%
- % Activity (agonist mode, 1 µM) [4]: 1%
- % Activity (agonist mode, 1 µM) [5]: 0%
- % Activity (agonist mode, 1 µM) [6]: -1%
- % Activity (agonist mode, 1 µM) [7]: -2%
- % Activity (agonist mode, 1 µM) [8]: 1%
- % Activity (agonist mode, 1 µM) [9]: 0%
- % Activity (agonist mode, 1 µM) [10]: 0%
- % Activity (agonist mode, 1 µM) [11]: -3%
- % Activity (agonist mode, 1 µM) [12]: 1%
- % Activity (agonist mode, 1 µM) [13]: 0%
- % Activity (agonist mode, 1 µM) [14]: 1%
- % Activity (agonist mode, 1 µM) [15]: 0%
- % Activity (agonist mode, 1 µM) [16]: 2%
- % Activity (agonist mode, 1 µM) [17]: -1%
- % Activity (agonist mode, 1 µM) [18]: 0%
- % Activity (agonist mode, 1 µM) [19]: 0%
- % Activity (agonist mode, 1 µM) [20]: -2%
- % Activity (agonist mode, 1 µM) [21]: 0%
- % Activity (agonist mode, 1 µM) [22]: 4%
- % Activity (agonist mode, 1 µM) [23]: 1%
- % Activity (agonist mode, 1 µM) [24]: 3%
- % Activity (agonist mode, 1 µM) [25]: 1%
- % Activity (agonist mode, 1 µM) [26]: 0%
- % Activity (agonist mode, 1 µM) [27]: 0%
- % Activity (agonist mode, 1 µM) [28]: 1%
- % Activity (agonist mode, 1 µM) [29]: -8%
- % Activity (agonist mode, 1 µM) [30]: 0%
- % Activity (agonist mode, 1 µM) [31]: 0%
- % Activity (agonist mode, 1 µM) [32]: 0%
- % Activity (agonist mode, 1 µM) [33]: 1%
- % Activity (agonist mode, 1 µM) [34]: -1%
- % Activity (agonist mode, 1 µM) [35]: 0%
- % Activity (agonist mode, 1 µM) [36]: 0%
- % Activity (agonist mode, 1 µM) [37]: -2%
- % Activity (agonist mode, 1 µM) [38]: -4%
- % Activity (agonist mode, 1 µM) [39]: 9%
- % Activity (agonist mode, 1 µM) [40]: 32%
- % Activity (agonist mode, 1 µM) [41]: -5%
- % Activity (agonist mode, 1 µM) [42]: 0%
- % Activity (agonist mode, 1 µM) [43]: -5%
- % Activity (agonist mode, 1 µM) [44]: 0%
- % Activity (agonist mode, 1 µM) [45]: 2%
- % Activity (agonist mode, 1 µM) [46]: 1%
- % Activity (agonist mode, 1 µM) [47]: -1%
- % Activity (agonist mode, 1 µM) [48]: 0%
- % Activity (agonist mode, 1 µM) [49]: -3%
- % Activity (agonist mode, 1 µM) [50]: -1%
- % Activity (agonist mode, 1 µM) [51]: 1%
- % Activity (agonist mode, 1 µM) [52]: -6%
- % Activity (agonist mode, 1 µM) [53]: 0%
- % Activity (agonist mode, 1 µM) [54]: 1%
- % Activity (agonist mode, 1 µM) [55]: 2%
- % Activity (agonist mode, 1 µM) [56]: 1%
- % Activity (agonist mode, 1 µM) [57]: 1%
- % Activity (agonist mode, 1 µM) [58]: -1%
